Where two headings read alike, the source gives them in different places.
Tests used:
[1] = molecular target: TSHR260-AP (human); experiment: TSHR260-AP bridge ELISA (full length TSHR on wells, TSHR260-AP in solution); IgG 0.05 µg/mL diluted in assay buffer
[2] = molecular target: TSHR260-AP (human); experiment: TSHR260-AP bridge ELISA (full length TSHR on wells, TSHR260-AP in solution); IgG 0.05 µg/mL diluted in HBD serum
[3] = molecular target: human TSH receptor (full length, wild type) expressed in CHO cells (human) (UniProt P16473); experiment: cell-based or functional assay
[4] = molecular target: TSHR260-AP (human); experiment: TSHR260-AP bridge ELISA (full length TSHR on wells, TSHR260-AP in solution); IgG 0.5 µg/mL diluted in assay buffer
[5] = molecular target: TSHR260-alkaline phosphatase (TSHR260-AP) (human) (UniProt P05187); experiment: TSHR260-AP bridge ELISA, full length TSHR on wells; 250 µg/mL, diluted in assay buffer
[6] = molecular target: TSHR260-alkaline phosphatase (TSHR260-AP) (human) (UniProt P05187); experiment: TSHR260-AP bridge ELISA, full length TSHR on wells; 0.1 µg/mL, diluted in assay buffer
[7] = molecular target: human TSH receptor (full length, wild type) expressed in CHO cells (human) (UniProt P16473); experiment: cell-based or functional assay; remark: listed apart in the source
[8] = molecular target: TSHR260-alkaline phosphatase (TSHR260-AP) (human) (UniProt P05187); experiment: TSHR260-AP bridge ELISA, full length TSHR on wells; 0.5 µg/mL, diluted in HBD
[9] = molecular target: TSHR260-AP (human); experiment: TSHR260-AP bridge ELISA (full length TSHR on wells, TSHR260-AP in solution); IgG 10 µg/mL diluted in HBD serum
[10] = molecular target: TSHR260-alkaline phosphatase (TSHR260-AP) (human) (UniProt P05187); experiment: TSHR260-AP bridge ELISA, full length TSHR on wells; 0.5 µg/mL, diluted in assay buffer
[11] = molecular target: TSHR260-alkaline phosphatase (TSHR260-AP) (human) (UniProt P05187); experiment: TSHR260-AP bridge ELISA, full length TSHR on wells; 0.05 µg/mL, diluted in assay buffer
[12] = molecular target: human TSHR (wild type, full length) expressed in CHO cells (human) (UniProt P16473); experiment: cell-based or functional assay
[13] = molecular target: TSHR260-alkaline phosphatase (TSHR260-AP) (human) (UniProt P05187); experiment: TSHR260-AP bridge ELISA, full length TSHR on wells; 1 µg/mL, diluted in assay buffer
[14] = molecular target: TSHR260-alkaline phosphatase (TSHR260-AP) (human) (UniProt P05187); experiment: TSHR260-AP bridge ELISA, full length TSHR on wells; 0.01 µg/mL, diluted in HBD
[15] = molecular target: human TSH receptor (TSHR), wild type, expressed in CHO cells (human) (UniProt P16473); experiment: cell-based or functional assay
[16] = molecular target: TSHR260-alkaline phosphatase (TSHR260-AP) (human) (UniProt P05187); experiment: TSHR260-AP bridge ELISA, full length TSHR on wells; 1 µg/mL, diluted in HBD
[17] = molecular target: TSHR260-alkaline phosphatase (TSHR260-AP) (human) (UniProt P05187); experiment: TSHR260-AP bridge ELISA, full length TSHR on wells; 0.05 µg/mL, diluted in HBD
[18] = molecular target: TSHR260-AP (human); experiment: TSHR260-AP bridge ELISA (full length TSHR on wells, TSHR260-AP in solution); IgG 250 µg/mL diluted in HBD serum
[19] = molecular target: TSHR260-AP (human); experiment: TSHR260-AP bridge ELISA (full length TSHR on wells, TSHR260-AP in solution); IgG 0.5 µg/mL diluted in HBD serum
[20] = molecular target: TSHR260-AP (human); experiment: TSHR260-AP bridge ELISA (full length TSHR on wells, TSHR260-AP in solution); IgG 0.1 µg/mL diluted in assay buffer
[21] = molecular target: TSHR260-alkaline phosphatase (TSHR260-AP) (human) (UniProt P05187); experiment: TSHR260-AP bridge ELISA, full length TSHR on wells; 10 µg/mL, diluted in HBD
[22] = molecular target: TSHR260-alkaline phosphatase (TSHR260-AP) (human) (UniProt P05187); experiment: TSHR260-AP bridge ELISA, full length TSHR on wells; 10 µg/mL, diluted in assay buffer
[23] = molecular target: TSHR260-AP (human); experiment: TSHR260-AP bridge ELISA (full length TSHR on wells, TSHR260-AP in solution); IgG 1 µg/mL diluted in HBD serum
[24] = molecular target: TSHR260-alkaline phosphatase (TSHR260-AP) (human) (UniProt P05187); experiment: TSHR260-AP bridge ELISA, full length TSHR on wells; 100 µg/mL, diluted in HBD

Substance 5B3 IgG (antibody) has a Mean absorbance at 405 nm (absorbance at 405 nm) [1] of -0.009, a Mean absorbance at 405 nm (absorbance at 405 nm) [2] of -0.006 and a % Inhibition; T10 serum + 100 µg/mL 5B3 IgG [3] of 0%. For the same substance, the % Inhibition; T11 serum + 100 µg/mL 5B3 IgG [3] was 3.2%, the % Inhibition; T12 serum + 100 µg/mL 5B3 IgG [3] was 0% and the Cyclic AMP concentration; 100 µg/mL 5B3 IgG alone [3] was 2 pmol/mL. The Cyclic AMP concentration; HBD + 100 µg/mL 5B3 IgG [3] was 2.4 pmol/mL, the Cyclic AMP concentration; T10 serum + 100 µg/mL 5B3 IgG [3] was 59.3 pmol/mL and the Cyclic AMP concentration; T11 serum + 100 µg/mL 5B3 IgG [3] was 39.7 pmol/mL. The Cyclic AMP concentration; T12 serum + 100 µg/mL 5B3 IgG [3] was 43.3 pmol/mL, the Mean absorbance at 405 nm (absorbance at 405 nm) [4] was -0.006 and the Mean absorbance at 405 nm (absorbance at 405 nm) [5] was 0.018. For the same substance, the Mean absorbance at 405 nm (absorbance at 405 nm) [6] was -0.013, the % Inhibition; T4 serum + 100 µg/mL 5B3 IgG [7] was 30.3% and the % Inhibition; T5 serum + 100 µg/mL 5B3 IgG [7] was 0%. For the same substance, the % Inhibition; T6 serum + 100 µg/mL 5B3 IgG [7] was 1.8%, the Cyclic AMP concentration; 100 µg/mL 5B3 IgG alone [7] was 2.6 pmol/mL and the Cyclic AMP concentration; HBD + 100 µg/mL 5B3 IgG [7] was 3 pmol/mL. It also gave a Cyclic AMP concentration; T4 serum + 100 µg/mL 5B3 IgG [7] of 55 pmol/mL, a Cyclic AMP concentration; T5 serum + 100 µg/mL 5B3 IgG [7] of 66.7 pmol/mL and a Cyclic AMP concentration; T6 serum + 100 µg/mL 5B3 IgG [7] of 81.5 pmol/mL. For the same substance, the Mean absorbance at 405 nm (absorbance at 405 nm) [8] was -0.001, the Mean absorbance at 405 nm (absorbance at 405 nm) [9] was -0.006 and the Mean absorbance at 405 nm (absorbance at 405 nm) [10] was -0.006. It also gave a Mean absorbance at 405 nm (absorbance at 405 nm) [11] of -0.009, a % Inhibition of T8 serum stimulation; 0.1 µg/mL 5B3 IgG [12] of 3% and a % Inhibition of T8 serum stimulation; 1 µg/mL 5B3 IgG [12] of 2%. For the same substance, the % Inhibition of T8 serum stimulation; 10 µg/mL 5B3 IgG [12] was 0%, the % Inhibition of T8 serum stimulation; 100 µg/mL 5B3 IgG [12] was 3% and the Cyclic AMP concentration; 0.1 µg/mL 5B3 IgG + T8 [12] was 50.7 pmol/mL. It also gave a Cyclic AMP concentration; 1 µg/mL 5B3 IgG + T8 [12] of 51.4 pmol/mL, a Cyclic AMP concentration; 10 µg/mL 5B3 IgG + T8 [12] of 56 pmol/mL and a Cyclic AMP concentration; 100 µg/mL 5B3 IgG + T8 [12] of 50.5 pmol/mL. It also gave a Cyclic AMP concentration; 100 µg/mL 5B3 IgG alone [12] of 2.1 pmol/mL, a Mean absorbance at 405 nm (absorbance at 405 nm) [13] of -0.004 and a Mean absorbance at 405 nm (absorbance at 405 nm) [14] of 0.027. It also gave a Cyclic AMP concentration in hypotonic medium; 1 µg/mL 5B3 IgG + 3 ng/mL pTSH [15] of 71.9 pmol/mL, a Cyclic AMP concentration in hypotonic medium; 3 µg/mL 5B3 IgG + 3 ng/mL pTSH [15] of 75.7 pmol/mL and a Cyclic AMP concentration in hypotonic medium; 3 µg/mL 5B3 IgG alone [15] of 1.9 pmol/mL. It also gave a Cyclic AMP concentration in isotonic medium; 1 µg/mL 5B3 IgG + 3 ng/mL pTSH [15] of 39.5 pmol/mL, a Cyclic AMP concentration in isotonic medium; 3 µg/mL 5B3 IgG + 3 ng/mL pTSH [15] of 42.5 pmol/mL and a Cyclic AMP concentration in isotonic medium; 3 µg/mL 5B3 IgG alone [15] of 0.5 pmol/mL. It also gave a Mean absorbance at 405 nm (absorbance at 405 nm) [16] of 0.049, a Mean absorbance at 405 nm (absorbance at 405 nm) [17] of -0.006 and a Mean absorbance at 405 nm (absorbance at 405 nm) [18] of 0.012. For the same substance, the Mean absorbance at 405 nm (absorbance at 405 nm) [19] was -0.001, the Mean absorbance at 405 nm (absorbance at 405 nm) [20] was -0.013 and the Mean absorbance at 405 nm (absorbance at 405 nm) [21] was -0.006. For the same substance, the Mean absorbance at 405 nm (absorbance at 405 nm) [22] was -0.014, the Mean absorbance at 405 nm (absorbance at 405 nm) [23] was 0.049 and the Mean absorbance at 405 nm (absorbance at 405 nm) [24] was 0.003.
